# Experiment: soluble fraction after stress (log2 fold change); higher = more stays soluble; pooled small domains, quantitative proteomics
# Details: stress: 50 degC
# Procedure, shortened: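 Pooled custom libraries of small protein domains were each held under stress at 50°C. The read-out, high-throughput quantitative proteomics, tracked how much of each protein stayed soluble. This is reported as a base-two log fold change used to indicate aggregation propensity. Higher values mean more protein remains in solution.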
row,Sequence,soluble fraction (log2)
1,HMNKWMQLASEEDKKLFNEAPKEIQDSITESAKFFDIRTKADVDTFWANTGLRQMKQQAMLNESFVNEY,-0.0275
2,HMETKQYIVEAQDEGTRLDVYLTKELGQSRSYVQSLVKEGHVQVNGKTGKSNLKLSSSSEILVTIPEVQ,-0.0648
3,HMNPDTERIREFVAVSLKNRKVATSGEIQNMIVKQFKNFKLKSHGYSNMKSFLSSIDKIQLNSNGKYSLK,-0.355
4,HMGQVPPLTRRETEIARLVSRGLSNKEIASTLVISPRTAEGHVEHILDKLGFSSRTQIATWLNEQTRNGK,-0.0938
5,HMVTLQEVKQYLRIDFEEEDPLLLSLLATAKQQVMNVGRMDEAQLSEHEDTARTAILYAVSYLYENRN,-1.85
6,HMVSVLGRRIKELRLQNSMTQMQLAKKLGYKGNSLVAGWELGKNYPSVSSIKRLSEIFDTDLMKYVG,-1.65
7,HMSAAPVGPWALSEFLDAVEKDSVERVTFDDAGKALVAVDADGGRHRVEILPSEGPEILAALRKHSVQFA,0.0953
8,HMVKSYEVPDVSNLTVLEAEAKLQEMGFEIDEEQKEISSSDIESGRVVKTSPQAGSKRKEGAIITLYVSSG,0.163
9,HMNIVVSSIDSNSFEIVNKETGEQAVISYDKETKKGFVLINGVKKEFFQDGNKVYYDGYVIAE,0.227
10,HMVWMIEKDQSVILVNKLERIQVEALGKALENGNFGDRIRVINNKSGQKLLGIVESEKKIQIISKI,-2.44
11,HMTLGQHIQALRKEAGYSQEALGEALGVTRQSISKWESDQAIPEVDKLVTLSRLFQVPVGVLLQVEQP,-0.16
12,HMGAPVIYELTAESAAGQRIDKYLSGQLADLSRSYLQKLLKDGGVEVNKKPVKSNYKLSEGDQIRLEVPEA,0.207
13,HMELSESLENYLVVIYEAHLRNEIARIKDMTASLSVKHTSAIDAIKKLEDLGIVNYEKRGFVKLTQSGIEK,0.0501
14,HMLNQIGVSQKEFDQIHTAIKIALKTSSLTPTGITEKLPKFPPEKTADILRWMADNKEVLLNSEEKYELKT,-0.0315
15,HMENFKVFMKAVQEVSPVPVRFDEISSGAKGYYSNTEKEIVIQNGMSESQTMKTGIHEVTHAMLHDRDF,0.113
16,HMEEIIPIRFLRHRVKRRETIFGLTQKYNITEDQLKRYNTRLYSEALERKMVLQIPVFPEVDED,-2.31
17,HMQRDELRYDQFLTALQNKEFTQLNVRFDDYTYLVTGTFQSGRPFSTRGPVSEEFIRLIESSGVQVTWLPM,-0.577
18,HMLTAPMPGTIQQILVTKGQKVRSGQTLMILEAMKMEHKIKAPNSGEIISINYSLGNRVEMGANLIEI,-1.13
19,HMKPQIRRHEKITALVREHGFMSVEQLARELEVTPQTIRRDIGILSAENVLRRYHGGAALGD,-0.586
20,HMGTHDAGTRFFDNLDSLLQNRDATRADVLAVYLLAVSLGFRGKHRSVSSAPQIAHYRNQAYVTLFQ,0.546
21,HMGRDWKTDLLNLATARGWGDVSYEVTGEGPDHARVYTAVAIVANQKTGTGVGPSKKEAERLAAEQAYRML,-0.142
22,HMDSINIDEETAKLGPNAPQIIDGIKKWGQGLVAKGVWSDEDFDEFKVFAATSSGINALNKIRKYY,0.0428
23,HMTVGENTYELIKKDIIFGVLPPLKKLKLQELKKIYNASVSTLREILSRLTGDGFVFSEEQKGFYVSPV,0.00444

row,Sequence,soluble fraction (log2)
1,HMTSVAYVIDRINKIQNVYSELEALGLKDEFEKILSNIEDLSKKDIREIKTLLKTKGVIKNLDDLNVKL,-0.0059
2,HMTTGEIIQRERTRLGLSQEKLAEQVGVSRQAVSKWELGDAVPDTDKLVPLARTLGISVDTLLD,0.0247
3,HMINFSKNIISDTTSIKEAIEILNIISGRDNHILFVLNDKRQLIGTLSDGDVRRGMLASKTISQSVTEVM,-0.351
4,HMQEPVYRPVFPGMTDADRQSAMEALKEGGFSPRLNRQTGQLEVDASGYHEAKIYLASQGIPAE,0.124
5,HMTPKVTVPDVTGQTFSSAKQILESLGFTVKQQGSTDETDQVIDQNPTSGEADKGATITLTTKSS,0.297
6,HMLKHSKQRDAIEQFLATRYDHPTAETVYMNLREEYPKLSLATVYRNLSLLAELGNIQKIPTGNGPDRFDG,-0.555
7,HMGSRRFGDSNHAAKLTEEQVVEIRELAAAGATTKFLAEMVGMHPNYVGLILRGLSWPEAGGPLRVA,0.11
8,HMDDPQAELLARAVRRVALAAAERTRRNEYGGVYLGLFRQFGISSYRRTPPARLHEALEWLERWRGDLM,-0.0675
9,HMSATPQRMTIIDALDSSGKNLSAYELLDLLNDKGQLFNISTIYRVLDFWIEMGIVHKINSSNTYL,0.125
10,HMQQEAVNLVQSRGQQAIEPVHIMQGVMKVGENVTNFIFQKLGMNGQQVALVVDKQIDSLPKVSGGEPYL,0.0273
11,HMSPAVSLITGKLGAETYYKQGLKKAKEKDYEGALDDLIKAYEFFPDKKIKTQVDKLASFLGKPPIL,0.0669
12,HMSFNGTILSNYQKTYPNLAKFTYDQANDALVYEGNFIKLNGYGLSRIDPVFFNMNPDEIFIFIKNG,-3.51
13,HMQLDLSDPSKNKLDSIVSLPIKSLKAVEANGEILFMSENGRFVLRGQLYDIWYKDTLDTSAQIQDAATRI,0.109
14,HMAPAYELTEEETKIIEILKANENIDLNELKSQAALSGKKWDKSMKNLAKYNLTKVTVDGDAKTVAYLA,0.0932
15,HMVSLSENQKIVLESLNTAMSARELMEILNLSDISHFRRNILNPLLLEGLIVRTKPDKPKSSKQKYIKANF,-1.15
16,HMGSVNDNVQKLTSQIGETTETGDTITPEDVELYKKMVDPLSTMAQKLEAAEILKLKGIIGSNGIIV,-0.0442
17,HMTKDVIEIVDGNKFVFHKTIATDSVSSVINKYHISEADFRTWNELTGDMKVGEEYIVQLSLH,-1.26
18,HMSATQDAAIAVRIRDILSELDGYEDVTVTVTSGIVTMRGTTLDSEKIARLNDLTGRVEGVVAIENSVTET,-0.367
19,HMDEYTAVDSRLDLELAMKRLKPEEAEVLRLVFDYGLPQRAIAERLGVSQMSVSRMQRRAIGKLKRWLSDN,-1.08
20,HMSEYVIVTGEKVNLRVGPGMDYEIAGQVVKGDKLELLASEGDWSKVKTGSGSIYYISSSLVQKA,-0.238
21,HMNTPHLTPREREVLKGIVDGLINKEIAARMGVSVATVITHRNNLTEKLGTRSVSALTIFAVMHGIVR,-2.49
22,HMTEELQDMESRIIEAAKRVFVRKGYEATKMSDIALEVGLGRTALHYYFRTKEMLFDAIFGRLMGV,-0.385
23,HMLGITEGSLVRVIRSPNFGKIGTVAELPAELRMMESETMVRIAIVEIEGTNFEIPRSNLEVLET,-1.55

row,Sequence,soluble fraction (log2)
1,HMKLEKKWIEAVEKYRRYVLSTGIKHVQKPIEFENFRLGQWYADVRQSYRRGTLSKEKLLEIREINPDFPN,-0.276
2,HMVEDFSEVLLQYIREQGGAIALNDKTDAGVIYDTFGVSKKTFKKAVGDLYKKRLIVLGDEGIRLA,-0.619
3,HMNKSYTVPDVRGMTVEEAQEAEGVKDIFTVHVQGTRKTDEYQPGQIVEQDPIAGRTRKSNFVIEVYVAE,0.0819
4,HMDVSPVRLIREARGLSQVEVAKAAGLSRAAYQNIEVGKTVPRASTMVNIARALGVSMDDLLAPV,-0.251
5,HMLSVRERMSAILVSLEGERYADFTGLFDPTEGKGGVTVTFLAILELLKESMIDVVQNELYGPIHVRAA,-0.368
6,HMAIRLIKASREFNVGISTIVEFLEKKGHAIDSDPNSKIPDELYQLIEKEFQTEGSVKKAAKQI,-0.0914
7,HMQDGVNLENIEQKLSTLGVGKAQYFLQNVGGNKFNAYMALNTDGVEGYQKGSDTLIEIKNVE,0.11
8,HMYSLSELERIKNFLTGYMSDYSIMMLDANEITNQVDISLKDYSDDNIESIKAAVLSHGGKTDYLNFIDDS,-0.589
9,HMGVITVRPPIVVRDFAIALNLKPFQVIGNLMELNKVVSVSSVIEEADARKVAERHGYTLEIRH,-0.516
10,HMVTPAQQARDTLLGALVGLARATTSEPKTDDTDVVLNAGLRLAAQPDAPEERLQRMLAIVQTEKHRV,0.116
11,HMGPNPLTEREQEILQLARTGEPVARLAKRLFLSPGTVRNHLSSAIGKLGAANRVEAAQFATERGW,0.0816
12,HMTNKQEYAYQWLKSSIIENKIKPSTLLVERHLSEMLHISRTPVRTALMRLADEGFVVISPGRGMVVA,-2.03
13,HMNSIQEQIEKYVYSLAPVTIERYESLKNGDIEDIEFEKLRKSISSKIINEKIDNKKQVAILSHLKKMYSD,0.0107
14,HMRVGISRNSGAAGIAVWLTQKLGRPVAKTEEIVHILKNWVDDQYEAGRVTNIGDGELWSVYKQMEAEE,-0.359
15,HMRGAARRDRAVGERAVSKDTILDATRALLRKGSALEIRAIDIAEESGLSRQTVFQYYPVIRLIFFELSD,0.138
16,HMRIATVTPIEEDQASDRVVAVYNDIKSTKQIDFIPNFWKVIAVNPDLLEQVWGQLKTLMHPEEVG,-0.659
17,HMNILKAPMPGLILDVIVKESDLVKKGDPVIILEAMKMENILSSPVDGIVKEIKVNPQQTVEKNNTLIKFE,-0.0546
18,HMIKEVGYEKFMQMTEEEDIGRVEIDQEENQITFTDKDETAIYKTGMVDDPDLTERLYDAGAEFS,0.0297
19,HMKVKEYKLVDWISTFTKNEGYGISQKAAMLLAEFLGDDLSRIANEIEKLKLLVEKGTTINDVHIEENI,-0.797
20,HMLQLKEPLKKVYERLTPVPKTAETILAELWEKGEYLDIAALHRALMELELSGYVRQSSPGYFGTSA,-0.096
21,HMTNIQFINLKMTDNHPWIHQYIKDIILPPQTRIVMIKRNDIKTIPKGERRIEKDDELILSAFESQT,-1
22,HMLKETGVITASVLNVREDIGTSSNIVAQLKKGMEVNILESRAIAGSETWYRIDAGSIKGWIFGDYI,-3.62

# Reference: the domain aggregation screens of Martell et al. (2025)
